# Test results reported in the nanobody polyreactivity screen of Harvey et al. (2022).
# Assay: yeast display, Sf9 membrane polyspecificity reagent, FACS + sequencing; frameworks hold sequencing errors
# Procedure, shortened: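 Using colony PCR, genes from sorted yeast display clones were amplified, then sequenced on MiSeq at 2 × 250 and filtered by CDR length. The clones had been stained with 10% biotinylated, detergent-solubilized Sf9 membrane reagent for 1 hour at 4 °C and sorted by FACS into low and high (top ~1%) gates on anti-HA and streptavidin fluorescence. Polyreactivity labels come from the gate of origin.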
row,Sequence,polyreactivity (PSR sort gate)
1,QVQLVESGGGLVQAGGSLSLSCAASGIIFYNYAMGWYRQAPGKERELVAAISSSGGRTYYAESVKGRFTISRDNAKNTVYLQMNSLKPEDTAVYYCAAYVWAYYVPYNYGYWGQGTQVTVSS,high polyreactivity
2,QVQLVESGGGLVQAGGSLRLICAASGSIFTLYDMGWYRQAPGKERELVAAITSGGSTDYADSVKGRFTISRDNAKNTVYLQMNSLKPEDTAVYYCNAEAYPYWYRGASREYDYWGQGTQVTVSS,low polyreactivity
3,QVQLVESGGGLVQAGGSLLLSCAASGRTFYYNDMGWYRQAPGKERELVASISYGGSTYYADSVKGRFTISRDNAKNTVYLQMNSLKPEDTAVYYCATVDWRWRYARRPRYDYWGQGTQVTVSS,high polyreactivity
4,QVQLVESGGGLVQAGGSLRLSCAASGSTFKYYAMGWYRQAPGKERELVAAISSGGSTYYADSVKGRFTISRDNAKNTVYLQMNSLKPEDTAVYYCAARGYYGKFSGSGYWGQGTQVTVSS,high polyreactivity
5,QVQLGESGGGLVQAGGSLRLSCAASGNIFYANAMGWSRQAPGTERELLAAISGSGGSTYADSVKGRFTISRDNAKNTVYLQMNSLKPVDTAVYYCNASVLDAIFYKSVGYDYWGQGTQVTVSS,low polyreactivity
6,QVQLVESGGGLVQAGGSLRLSCAASGRILYSYAMGWYRQAPGKEREFVAAIRRSGGSTYYADSVKGRFTISRDNAKNTVYLQMNSLKPEDTAVYYCAAGRRYSGSYDYWGQGTQVTVSS,high polyreactivity
7,QVQLVESGGGLVQAGGSLRLSCAASGLTFRPNAMGWYRQAPGKERELVAAITWRGGRTYYADSVKGRFTISRDNAKNTVYLQMNSLKPEDTAVYYCAADSPYRGRPGPLNYGGDYWGQGTQVTVSS,high polyreactivity
8,QVQLVESGGGLVQAGGSLRLSCAASGSTFSGYAMGWYRQAPGKARELVAAISWRGVRTYYADSVKGRFTISRDNAKNTVYLQMNSLKPEDTAVSYCAAVRYITKEFSWGQGTQVTVSW,high polyreactivity
9,QVQLQESGGGQVQAGGSLRLSCAASGYISTHYFMGWYRQATGKDREFVAGISNGSITNYADSVKGRFTISRDNARNTVYLQMNSLKPEDTAVYYGAAYEWTYVRFGYWGQGTQVTVSG,high polyreactivity
10,QVQLVESGGGLVQAGGSLRLSCAASGSTSQRNAMGWYRQAPGKERELVAAISRSGGSTSYADSVKGRFTISRDNAKNTVYLQMNSLKPEDTAVYYCNTDRRIYRVWYNYWGQGTQVTVSS,high polyreactivity
11,QVQLVESWGGLVQAGGSLRLSCAASGSTMRYYAMGWYRQAPGKERELVAAISSRGGRTYYSDSVKGRFTISRDNAKNTVYLQMNSLKPEDTAVYYCAARARERYYWGQGNQVTVSS,high polyreactivity
12,QDQLVESGGGLVQAGGSLRLSCAATGRIFKLYAMGWYRQAPGKERELVAAISSSGTRTYYADSVKGRFTISRDNAKNTVYLHMNSMKPEDTAVYYCAKRWPRKGNYPGSDYWGQGTQVTVSS,high polyreactivity
13,QVQLVESGGGLVQAGGSLRLSCAASGLTFKDNAMGWYRQAPGKERELVAAISKGGGSTFYADSVKGRFTISRDNAKNTVYLQMNSLKPEDTAVYYCNADVGYRGGEEDYWGQGTQVTVSS,low polyreactivity
14,QVQLVESGGGLVQAGGSLRLICAASGSTFTGYAMGWYRQAPGKERELVAAINWRGGTTYYADSVKGRFTISRDNAKNTVYLQMNSLKPEDTAVYYCNKYRISGLSKFYYWGQGTQVTVSS,high polyreactivity
15,QVQLVESGGGLVQAGGSLRLSCAASGSTFWGYAMGWYRQAPGKERELVATINQSAGSTYYADSVKGRFTISRDNAKNTVYLQMNSLKPEDTAVYYCAAEARVQFSYDYWGQGTQVTVSS,low polyreactivity
16,QVQLVESGGGLVQAGGSLRLSCGASGSIFRYYTMGWYRQAPGKERELVAAISRSGGSTYYADSVKGRFTISRDNAKNTVYLQMNRLKPEDTAVYYCAARSGYIYEYWGQGTQVTVSS,high polyreactivity
17,QVQLVESGGVLVQAGGSLRLSCAATGYIFHLYGMGWYRQAPGKERELVARITYRRGSTYYADSVKGRFTISRDNAKNTVYLQMNSLKPEDTAVYYCAKRRGYGYNYWGQGTQVTVSS,high polyreactivity
18,QVQLVESGGGLVQAGGSLRLSCAASGRTFPRNGMGWYRQAPGTERELVAAISWSGGRTYYADSVKGRFTISRDNAKNTVYLQMNSLKPEDTAVYYCNALYFRKGGYWGQGTQVTVSS,high polyreactivity
19,QVQLVESGGGLVQAGGSLRLSCAASGRIFWAYAMGWYRQAPGKERELVAGITFTGGRTYYADSVKGRFTISRDNAKNTVYLQMNSLKPEDTAVYYCAAAGLDVGRKDRDGYWGQGTQVTVSS,low polyreactivity
20,QVQLVESGGGLVQAGGSLRLSCAATGIISQYYAMGWYRQQPGKESELDAAISRSGGSTFYADSVKGRFTISRDNAQNTVYLQMNSLKPEDTAVYYCNAESRFRPYTSRYDYWGQGTQVTVSS,high polyreactivity
21,QVQLVESGGGLVQAGGSLRLSCAASGRTFSEYAMGWYRQAPGKERELVAAITENGGSTYYADSVKGRFTISRDIAKNTVYLQMNSLKPEDTAVYYCAAETWADWYSEFYWGQGTLVTVSS,high polyreactivity
22,QVQLVESGGGLVQAGGILRLSCAASGSNFWTNAMGWYRQAPGKERELVARISPGGSTNYADSVKGRFTISRDNAKNTVYLQMNSLKPEDTAVYYCAAQRGYVYGYDYWGQGTQVTVSS,low polyreactivity

row,Sequence,polyreactivity (PSR sort gate)
1,QVQLQESGGGLVQAGGSLRLSCAASGSITHYIFMGWYRQAPGKEREFVAGIGYGGTTNYADSVKGRFTISRDNAINTVYLQMNSLKPEDTAMYYCAAREATEFYLYYWGQGTQVTVSS,low polyreactivity
2,QVQLVESGGGLVQAGGSLRLSCAASGFIFDQNAMGWYRQAPGKERELVAAITRSGGCTYYADSVKGRFTISRDNAKNTVYLQMYSLNPEDTAVYYCAADLSYRGATRGDYYWGPGTQVTVSS,low polyreactivity
3,QVQLVESGGGLVQAGGSLRLSCAASGRIVSGYVMGWYRQAPGKERELVAVISRSGGSTYYADSVKGRFTISRDNAKNTVYLQMNSLKPEDTAVYYCDAKHIDGSRGYDYWGQGTQVTVSS,low polyreactivity
4,QVQLVESGGGLVQAGGSLRLSCAASGSIFKEYTMGWYRQAPGKERELVAAITWSDGSTDYADSVKGRFTISRDNAKNTVYLQMNSLKPEDTAVYYCAADYDYPYFWSSGYIDDYWGQGTQVTVSS,low polyreactivity
5,QVQLVESGGGLVQAGRSLRLSCAASGRTFGANAMGWYRQAPGKERELVAAISYHGTRTYYADSVKGRFTISRDNAKNTVYLQMNSLKPEDTAVYYCAAVGKPGVYQEGDYWGQGTQVTVSS,high polyreactivity
6,QVQLVESGGGLVQAGGSLRLSCAASGRILASYAMGWYRQAPGKECELVAAIRYRGSTSYADSVKGRFTISRDNAKNTVYLQMNSLKPEDTAVYYCAAKWHVRGRGARYRYDYDYWGQGTQVTVSS,low polyreactivity
7,QVQLVESGGGLVQAGGSLRLSCAASGRTFRVYAMGWYRQAPGKERELVAGIRSRGGSTYYADSVKGRFTISRDYAKNTVYLQMNSLKPEDTAVYYCAAGYYLPQAIYEYWGLGTQVTVSS,high polyreactivity
8,QVQLVESGGGLVQAGGSLRLSCAASGGLFIRYGMGWYRPAPGKERELVAGIDSGGGTNYADSVKGRFTISRDNAKNTVYLQMNSLKPEDTAVYYCARRQGYGFLYGRPYGYWGQGTQVTVSS,low polyreactivity
9,QVQLVESGGGLVQAGGRLRLSCAASGLTFGWYTMGWYRQAPGKERELVADITWSGGSTYYADSVKGRFTISRDNAKNTVYLQMNSLKPEDTAVYYCNKVWFYLEYGFSILYDYWGQGTQVTVSS,low polyreactivity
10,QVQLVESGVGLVQAGGSLRLSCAASGISFVGNAMGWYRQAPGKERELVASINSGGSTYYADSVKGRFTISRDNAKYTVYLQMNSLKPADTAVYYCAVEEDRYYYDDYDYWGQGTQVTVSS,low polyreactivity
11,QVQLVESGGGLVQAGGSLRLSCAASGSTFRYNAMGWYRQAPGKERELVAGITSSGGTYADSVKGRFTISRDNAKNTVSLQMNSLKPEDTAVYSCAAEYNWYDYWGQGTQVTVSS,low polyreactivity
12,QVQLVESGGGLVQAGGSLRLSCAASGRIFQGYAKGWYRQAPGKERELVAAIRTGGSTNYADSVKGRFTISRDNAKNTVYLQMNSLKPEDTAVYYCNAVGQLYFYFPRGDYWGQGTQVTVSS,low polyreactivity
13,QVQLVESGGGLVQAGGSLRLSCAASGSIFYTYAMGWSRQAPGKEREFVAAITSSGGSTYYADSVKGRFTISRDNAKNTVYLQMNSLKPEDTAVYYCAADSGSTSEYEYWGQGTQVTVSS,low polyreactivity
14,QVQLVESGGGLVQAGGSLRLSCAASGFIFGHNTMGWYRQAPGKERELVARITSSGGGTNYADSVKGRFTISRDNAKNTVYLQMNSLKPEDTAVYYCAAELLYWGYYDYDYWGQGTQVTVSS,high polyreactivity
15,QVQLLESGGGLVQAGGSLSLSCAASGSTFKHYAMGWYRQAPGKERELVAAISSRGGSTHYADSVKGRFTISRDNAKNTVYLQMNSLKREDTAVYYCARDTDPQSSRSSDYDYWGQGTQVSVSS,low polyreactivity
16,QVQLVESGGGLVQAGGSLRLSCAASGITFDDNAMGWYRQAPGKERELVATISDGGRTYYADSVKGRFTISRDNAKNTVYLQMNSLKPEDTAVYYCAAGYPYYHVYGYGYWGQGTQVTVSS,low polyreactivity
17,QVQLVESGGGLVQAGGSLRLSCAASGGTFLYYMGWYRQSPGKERELVAAITFSGGSTYYADSVKGRFTISRDNAKNTVYLQMNSLKPEDTAVYYCAAGWYDWPKYLLSVYTYYLYDSWGQGTQVTVSS,low polyreactivity
18,QVQLVESGGGLVQAGGSLRLSCAASGRTFLRYAMGWYRQAPGTERELVAAISWSGGRTYYADSVKGRFTISRDNAKNTVYLQMNSLKPEDTAVYYCNKVVLYGAHYYYWGQGTQVTVSS,high polyreactivity
19,QVQLVESGGGIVQAGGSLRLSCAASGSIFSFYAMGWYRQAPGKERELVAAIDVSGGSTYYADSVKGRFTISRDNAKNSVYLQMNSLKPEDTAVYYCAKDVRDQYDYWGQGTQVTVSS,low polyreactivity
20,QVQLVESGGGLVHAGGSLRLSCAAYGSTSLVNAMGWYRQAPGKERELVAAITRGGNTYYADSVKGRFTISRDNAKNTVYLQMNSLKPEDTAVYYCAAEDHTEQGQYDYWGQGTQVTVSS,low polyreactivity
21,QVQLVESAGGLVQAAASLRLSCADSGITFVVYTMGWYRQAPGKERELVASISISGDSTNYADSVKGRFTISRDNAKNTVYLQMNSLKPEDTAVYYCNAAFYHFQFPWIAYDYWGQGTQVTVSS,low polyreactivity
